# Measurements from paper PMC9081212.
# Target: wild-type human γS-crystallin (human) (UniProt P22914)
# Test: SEC-MALS
substance,measurement,value
wild-type human γS-crystallin (from UniProt P22914 1-178) (natural protein),stoichiometry N,2
